Laboratory results as given in the Human Domainome abundance scans (Beltran et al. 2025).
± gives the uncertainty stated by the source.

assay: abundance fitness (aPCA) (normalised: wild type 0, dead -1); higher = more abundant; growth selection in yeast, the domain comes from the species named; conditions: Homo sapiens

Question: With “NEDD4-like E3 ubiquitin-protein ligase WWP2 T455W, O00308” as the substance, how does the abundance fitness read?
Answer: Its abundance fitness is -0.866 ± 0.1.

Question: Which abundance fitness does the source give for “NEDD4-like E3 ubiquitin-protein ligase WWP2 T470C, O00308” here?
Answer: Its abundance fitness is -0.164 ± 0.069.

Question: Which abundance fitness does the source give for “NEDD4-like E3 ubiquitin-protein ligase WWP2 G486H, O00308” here?
Answer: The abundance fitness was -0.135 ± 0.062.

Question: For “Transcription factor SOX-11 R86S, P35716”, which abundance fitness is on record?
Answer: Its abundance fitness is -0.07 ± 0.046.

Question: With “NEDD4-like E3 ubiquitin-protein ligase WWP2 P475A, O00308” as the substance, how does the abundance fitness read?
Answer: The abundance fitness was -0.837 ± 0.037.

Question: For “NEDD4-like E3 ubiquitin-protein ligase WWP2 D492G, O00308”, which abundance fitness is on record?
Answer: Its abundance fitness is -0.158 ± 0.051.

Question: With “NEDD4-like E3 ubiquitin-protein ligase WWP2 K453S, O00308” as the substance, how does the abundance fitness read?
Answer: Its abundance fitness is -0.183 ± 0.042.

Question: For “NEDD4-like E3 ubiquitin-protein ligase WWP2 R493M, O00308”, which abundance fitness is on record?
Answer: The abundance fitness was -0.083 ± 0.082.

Question: Which abundance fitness does the source give for “NEDD4-like E3 ubiquitin-protein ligase WWP2 Y454G, O00308” here?
Answer: Its abundance fitness is -0.428 ± 0.045.

Question: Which abundance fitness does the source give for “NEDD4-like E3 ubiquitin-protein ligase WWP2 P447Y, O00308” here?
Answer: The abundance fitness was -0.5 ± 0.081.

Question: For “Transcription factor SOX-11 K85Q, P35716”, which abundance fitness is on record?
Answer: The abundance fitness was 0.228 ± 0.13.

Question: With “NEDD4-like E3 ubiquitin-protein ligase WWP2 E451F, O00308” as the substance, how does the abundance fitness read?
Answer: The abundance fitness was -0.572 ± 0.083.

Question: Which abundance fitness does the source give for “NEDD4-like E3 ubiquitin-protein ligase WWP2 A490R, O00308” here?
Answer: The abundance fitness was -0.047 ± 0.035.

Question: For “NEDD4-like E3 ubiquitin-protein ligase WWP2 N466F, O00308”, which abundance fitness is on record?
Answer: Its abundance fitness is -0.145 ± 0.071.

Question: For “Transcription factor SOX-11 L107K, P35716”, which abundance fitness is on record?
Answer: Its abundance fitness is -0.218 ± 0.14.

Question: For “NEDD4-like E3 ubiquitin-protein ligase WWP2 L446V, O00308”, which abundance fitness is on record?
Answer: Its abundance fitness is -0.29 ± 0.052.

Question: With “NEDD4-like E3 ubiquitin-protein ligase WWP2 G478Y, O00308” as the substance, how does the abundance fitness read?
Answer: The abundance fitness was -0.084 ± 0.068.

Question: Which abundance fitness does the source give for “NEDD4-like E3 ubiquitin-protein ligase WWP2 S456G, O00308” here?
Answer: The abundance fitness was -0.043 ± 0.046.

Question: Which abundance fitness does the source give for “NEDD4-like E3 ubiquitin-protein ligase WWP2 E480G, O00308” here?
Answer: Its abundance fitness is -0.038 ± 0.033.

Question: Which abundance fitness does the source give for “NEDD4-like E3 ubiquitin-protein ligase WWP2 P447W, O00308” here?
Answer: The abundance fitness was -0.659 ± 0.07.

Question: For “NEDD4-like E3 ubiquitin-protein ligase WWP2 E443N, O00308”, which abundance fitness is on record?
Answer: The abundance fitness was -0.019 ± 0.08.

Question: With “NEDD4-like E3 ubiquitin-protein ligase WWP2 A490L, O00308” as the substance, how does the abundance fitness read?
Answer: The abundance fitness was -0.047 ± 0.037.

Question: For “NEDD4-like E3 ubiquitin-protein ligase WWP2 D474N, O00308”, which abundance fitness is on record?
Answer: The abundance fitness was -0.332 ± 0.065.

Question: For “NEDD4-like E3 ubiquitin-protein ligase WWP2 K473V, O00308”, which abundance fitness is on record?
Answer: The abundance fitness was 0.112 ± 0.041.

Question: Which abundance fitness does the source give for “NEDD4-like E3 ubiquitin-protein ligase WWP2 D492Q, O00308” here?
Answer: The abundance fitness was -0.043 ± 0.088.

Question: With “NEDD4-like E3 ubiquitin-protein ligase WWP2 T469R, O00308” as the substance, how does the abundance fitness read?
Answer: The abundance fitness was -0.243 ± 0.038.

Question: For “NEDD4-like E3 ubiquitin-protein ligase WWP2 R476T, O00308”, which abundance fitness is on record?
Answer: The abundance fitness was -0.075 ± 0.049.

Question: With “NEDD4-like E3 ubiquitin-protein ligase WWP2 P448I, O00308” as the substance, how does the abundance fitness read?
Answer: Its abundance fitness is -0.13 ± 0.071.

Question: Which abundance fitness does the source give for “NEDD4-like E3 ubiquitin-protein ligase WWP2 M440V, O00308” here?
Answer: Its abundance fitness is -0.114 ± 0.079.

Question: With “NEDD4-like E3 ubiquitin-protein ligase WWP2 F479D, O00308” as the substance, how does the abundance fitness read?
Answer: Its abundance fitness is 0.02 ± 0.072.

Question: Which abundance fitness does the source give for “NEDD4-like E3 ubiquitin-protein ligase WWP2 Q442S, O00308” here?
Answer: The abundance fitness was 0.008 ± 0.042.

Question: For “NEDD4-like E3 ubiquitin-protein ligase WWP2 S481I, O00308”, which abundance fitness is on record?
Answer: The abundance fitness was -0.047 ± 0.067.

Question: For “NEDD4-like E3 ubiquitin-protein ligase WWP2 K473A, O00308”, which abundance fitness is on record?
Answer: Its abundance fitness is -0.111 ± 0.045.

Question: With “NEDD4-like E3 ubiquitin-protein ligase WWP2 N466E, O00308” as the substance, how does the abundance fitness read?
Answer: The abundance fitness was -0.238 ± 0.069.

Question: For “NEDD4-like E3 ubiquitin-protein ligase WWP2 P488C, O00308”, which abundance fitness is on record?
Answer: Its abundance fitness is -0.049 ± 0.058.

Question: Which abundance fitness does the source give for “NEDD4-like E3 ubiquitin-protein ligase WWP2 R493V, O00308” here?
Answer: The abundance fitness was -0.069 ± 0.037.
